According to US20150166606A1 (RA PHARMACEUTICALS, published 2015):
Numbered stars: 1 amine (or outer) side, 2 acyl side, 3 side chain; on linkers, the order of the positions; unused ones are H or OH. Bridge positions count the residues as written; N and C are the ends. Square brackets hold non-standard residues; d marks the D form. Ends that are not written are not given here. * marks the point of attachment. mXylyl = xylyl linker from dibromoxylene joining the two cysteines; Trp(7-aza) = N[C@@H](Cc1c[nH]c2ncccc12)C(=O)O; des‑NH2 = missing amino-terminal amine group; pXylylene = c1cc(C[*:2])ccc1C[*:1]; dPhg = N[C@@H](C(=O)O)c1ccccc1; Chg = N[C@H](C(=O)O)C1CCCCC1; Phg = N[C@H](C(=O)O)c1ccccc1; Tle = CC(C)(C)[C@H](N)C(=O)O; NMeC = CN[C@@H](CS)C(=O)O; NMeS = CN[C@@H](CO)C(=O)O; Heptanoyl = CCCCCCC(=O)*; Ac5c = NC1(C(=O)O)CCCC1; Thp = NC1(C(=O)O)CCOCC1; Ac4c = NC1(C(=O)O)CCC1; Aib = CC(C)(N)C(=O)O; AEA = NCCOCC(=O)O; Mpa = O=C(O)CCS

The binders below were run against T1, Activated human plasma kallikrein (Enzyme Research Laboratories, HPKa 1303) (human, UniProt P03952 20-638) (assay: cell-based or functional assay).
T1 sequence (P03952 20-638 limits assumed): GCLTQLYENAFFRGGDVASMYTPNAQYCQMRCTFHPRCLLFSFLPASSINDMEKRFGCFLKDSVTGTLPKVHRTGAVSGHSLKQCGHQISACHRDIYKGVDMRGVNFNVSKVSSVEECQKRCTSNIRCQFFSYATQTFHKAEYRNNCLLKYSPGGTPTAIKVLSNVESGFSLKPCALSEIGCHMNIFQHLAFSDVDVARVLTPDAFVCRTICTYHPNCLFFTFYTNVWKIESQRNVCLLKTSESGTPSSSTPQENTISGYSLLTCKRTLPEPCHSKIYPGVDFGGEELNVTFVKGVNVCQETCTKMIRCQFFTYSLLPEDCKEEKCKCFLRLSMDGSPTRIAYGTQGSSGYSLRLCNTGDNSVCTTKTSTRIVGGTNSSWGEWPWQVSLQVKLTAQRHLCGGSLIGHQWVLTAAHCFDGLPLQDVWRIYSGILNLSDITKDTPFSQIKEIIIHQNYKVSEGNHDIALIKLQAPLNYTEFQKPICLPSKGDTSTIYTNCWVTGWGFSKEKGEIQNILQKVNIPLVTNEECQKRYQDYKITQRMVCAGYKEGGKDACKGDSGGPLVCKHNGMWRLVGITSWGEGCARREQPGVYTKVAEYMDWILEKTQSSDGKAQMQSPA

Binder	Avg. IC50
{des‑NH2}-C[Aib]A[Phg]CR[Tle]LRYSE-NH2 (linker 1-5 via mXylyl) [R2099]	0.1 nM
{des‑NH2}-C[Ac4c]A[Phg]CR[Tle]-NH2 (linker 1-5 via mXylyl) [R2097]	2 nM
{des‑NH2}-C[Thp]A[Chg]CR[Tle]-NH2 (linker 1-5 via mXylyl) [R2100]	1.5 nM
{des‑NH2}-C[Aib]A[dPhg]CR[Tle]LRYSE-NH2 (linker 1-5 via mXylyl) [R2098]	22.4 nM
MCESI[NMeC]RV-NH2 (linker 2-6 via mXylyl) [R2101]	12700 nM

Biological target: T1, Activated human plasma kallikrein …
Assay: cell-based or functional assay
Remark: another data set of the same source

Binder	Avg. IC50
{des‑NH2}-C[Ac5c]A[dPhg]CR[Tle]-NH2 (linker 1-5 via mXylyl) [R2149]	177 nM
{des‑NH2}-C[Ac5c]A[Phg]CR[Tle]-NH2 (linker 1-5 via mXylyl) [R2150]	0.764 nM
{des‑NH2}-C[AEA][Phg]CR[Tle]-NH2 (linker 1-4 via mXylyl) [R2151]	1940 nM
XSICRV (not fully specified; [mXylyl(1,4)](2-SAc)-SICRV-NH2) [R2154]	> 7930 nM
{des‑NH2}-C[Aib]A[Chg]CR-{3,3‑dimethylbutan‑2‑amine} (linker 1-5 via mXylyl) [R2152]	319 nM
[Mpa][Aib]A[Chg]CR[Tle]LRYC-NH2 (linker 1-5-11 via 1,3,5‑Xylyl) [R2158]	2340 nM
[Mpa]SICRV-NH2 (linker 1-4 via oXylyl) [R2161]	2230 nM
{des‑NH2}-C[Thp]A[Chg]C[Trp(7-aza)][Tle]-NH2 (linker 1-5 via mXylyl) [R2147]	> 2190 nM
[Mpa]SICRV-NH2 (linker 1-4 via mXylyl) [R2155]	66.3 nM
{des‑NH2}-C[Aib]A[Chg]CR-OH (linker 1-5 via mXylyl) [R2153]	> 8880 nM
Ac-[Chg]CRVAC-NH2 (linker 2-6 via mXylyl) [R2159]	> 20100 nM
[Mpa][Aib]A[Chg]CR[Tle]PC-NH2 (linker 1-5-9 via 1,3,5‑Xylyl) [R2157]	> 14300 nM
Ac-[Chg]CRVPC-NH2 (linker 2-6 via mXylyl) [R2160]	> 100000 nM
Heptanoyl-C[dA][NMeS][Chg]CR[Tle]-NH2 (linker 1-5 via mXylyl) [R2148]	28.8 nM
[Mpa]SICRV-NH2 (linker 1-4 via pXylylene; SMILES CC[C@H](C)[C@@H]1NC(=O)[C@H](CO)NC(=O)CCSCc2ccc(cc2)CSC[C@@H](C(=O)N[C@@H](CCCNC(=N)N)C(=O)N[C@H](C(N)=O)C(C)C)NC1=O) [R2156]	1530 nM
